Test results reported in paper PMC3605417, “An Archaeal Homolog of Proteasome Assembly Factor Functions as a Proteasome Activator” (PLoS ONE, 2013).
One block for each binder: values may come before it.

B2: His6-PbaB, Pyrococcus furiosus (natural protein, UniProt Q8U1R3 1-280, looked up)
chain: MEEGGTRNREEGKMKETTIVVYERPDIYDPIFIEGLPGIGLVGKLAAEHLIQELKAKKFAELYSPHFMHQVLIRKNSVVELMKNEFYYWKSPDDEHRDLIIVTGDTQVPPTDSYGHFEVAGKMLDFVQEFGTREIITMGGYQVPEIQGEPRVLAAVTHEDLIEYYKSKLEGCSVEVIWREDEGGAIVGAAGLLLGIGKLRGMFGISLLGESLGYIVDAKAAKAVLSAVTKILGLEIDMTALDERAKETEEILRKVEEMQRAMMEQVTPKLPHEEEDRGYL
notes: PbaB, Pyrococcus furiosus, locus PF1142, residues 1-280; pET-28b (NdeI/XhoI); Used in SPR (immobilised), ultracentrifugation, electron tomography and the chaperone assay; also called His6-tagged PbaB; PF1142; source: E. coli BL21(DE3), purified (Ni2+-chelating Sepharose, HiTrap Q HP, Superdex 200); not shown: His6, N-terminal, kept

What was measured:
[1] = biological target: B2; assay: SPR; Biacore T100, Sensor Chip NTA, 25°C; His6-tagged PbaB (wild type or CΔ3) immobilised; non-tagged mature (18.8-300 nM) or immature (18.5-296 nM) 20S proteasome or α subunit ring (15.4-246 nM) injected; 10 mM HEPES (pH 7.5), 150 mM NaCl, 0.05% Tween20; 10 μl/min; conditions: both partners purified
[2] = biological target: T1, His6-tagged wild-type 20S proteasome (αβ1 form), Pyrococcus furiosus (Pyrococcus furiosus, UniProt Q8U0L6 1-260; Q8U4C9 1-196); assay: cell-based or functional assay
T1 sequence (looked up) 1: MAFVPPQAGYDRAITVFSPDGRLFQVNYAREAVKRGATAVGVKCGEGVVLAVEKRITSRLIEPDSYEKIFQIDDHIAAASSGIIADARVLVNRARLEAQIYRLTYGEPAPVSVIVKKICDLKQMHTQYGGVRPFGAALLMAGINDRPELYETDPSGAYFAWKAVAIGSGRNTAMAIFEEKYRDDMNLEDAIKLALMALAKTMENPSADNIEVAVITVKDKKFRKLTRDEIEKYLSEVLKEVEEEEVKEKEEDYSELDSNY
T1 sequence (looked up) 2: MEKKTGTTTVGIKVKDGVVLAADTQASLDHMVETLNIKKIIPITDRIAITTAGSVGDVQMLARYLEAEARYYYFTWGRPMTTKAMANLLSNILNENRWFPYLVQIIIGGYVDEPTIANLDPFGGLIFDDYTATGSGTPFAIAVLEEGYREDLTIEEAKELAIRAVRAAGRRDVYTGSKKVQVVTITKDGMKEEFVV

[3] = biological target: the molecule itself; assay: AUC; sedimentation velocity, 20 μM His6-tagged PbaA or PbaB, 150 mM sodium phosphate (pH 7.5), 100 mM NaCl, 38,000 rpm, 20°C; continuous c(s) distribution (SEDFIT)
[4] = biological target: T2, immature 20S proteasome retaining the β subunit propeptide, inactive mutant (α + β1^T7A), Pyrococcus furiosus (Pyrococcus furiosus, UniProt Q8U0L6 1-260; Q8U4C9 1-196, T7A); assay: SPR; Biacore T100, Sensor Chip NTA, 25°C; His6-tagged PbaB (wild type or CΔ3) immobilised; non-tagged mature (18.8-300 nM) or immature (18.5-296 nM) 20S proteasome or α subunit ring (15.4-246 nM) injected; 10 mM HEPES (pH 7.5), 150 mM NaCl, 0.05% Tween20; 10 μl/min; conditions: both partners purified
T2 construct: proteasome α subunit PsmA, Pyrococcus furiosus, locus PF1571, residues 1-260; proteasome β subunit 1 PsmB1 with its propeptide, Pyrococcus furiosus, locus PF0159, residues 1-196; non-tagged version; source: E. coli BL21(DE3), co-expressed, purified (heat precipitation at 85°C, HiTrap Q HP, Sephacryl S-400); copies: 14 + 14
T2 sequence (looked up) 1: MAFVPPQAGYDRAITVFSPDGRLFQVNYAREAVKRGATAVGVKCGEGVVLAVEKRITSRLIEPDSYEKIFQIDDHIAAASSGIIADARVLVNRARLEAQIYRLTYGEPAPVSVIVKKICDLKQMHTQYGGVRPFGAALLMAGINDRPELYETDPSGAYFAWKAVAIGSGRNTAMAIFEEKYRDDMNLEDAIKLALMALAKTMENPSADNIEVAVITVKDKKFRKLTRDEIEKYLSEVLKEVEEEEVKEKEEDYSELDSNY
T2 sequence (looked up) 2: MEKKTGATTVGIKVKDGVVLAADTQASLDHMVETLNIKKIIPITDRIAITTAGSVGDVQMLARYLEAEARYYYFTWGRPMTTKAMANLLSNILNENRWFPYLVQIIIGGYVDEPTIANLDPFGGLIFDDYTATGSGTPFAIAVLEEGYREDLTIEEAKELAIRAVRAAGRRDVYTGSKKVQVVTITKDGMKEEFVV

[5] = biological target: T3, non-tagged mature 20S proteasome, inactive mutant (α + β1^NΔ6/T7A), Pyrococcus furiosus (Pyrococcus furiosus, UniProt Q8U0L6 1-260; Q8U4C9 7-196, T7A); assay: as above; conditions: both partners purified
T3 construct: proteasome α subunit PsmA, Pyrococcus furiosus, locus PF1571, residues 1-260; proteasome β subunit 1 PsmB1, Pyrococcus furiosus, locus PF0159 (residues 1-196); NΔ6: the six N-terminal (propeptide) residues removed; non-tagged version; source: E. coli BL21(DE3), co-expressed, purified (heat precipitation at 85°C, HiTrap Q HP, Sephacryl S-400); copies: 14 + 14
T3 sequence (looked up) 1: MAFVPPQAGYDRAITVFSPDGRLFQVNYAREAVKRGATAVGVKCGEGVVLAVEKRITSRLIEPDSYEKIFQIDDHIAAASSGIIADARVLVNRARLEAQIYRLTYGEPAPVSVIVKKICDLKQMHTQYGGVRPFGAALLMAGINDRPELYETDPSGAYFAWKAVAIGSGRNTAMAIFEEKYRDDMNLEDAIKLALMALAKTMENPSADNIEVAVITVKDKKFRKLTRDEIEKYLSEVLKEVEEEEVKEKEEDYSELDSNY
T3 sequence (looked up) 2: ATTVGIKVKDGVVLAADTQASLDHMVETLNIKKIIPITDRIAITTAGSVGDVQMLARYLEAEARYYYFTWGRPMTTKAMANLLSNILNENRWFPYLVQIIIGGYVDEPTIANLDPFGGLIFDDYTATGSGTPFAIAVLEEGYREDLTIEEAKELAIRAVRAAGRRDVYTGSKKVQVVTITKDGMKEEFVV

[6] = biological target: the molecule itself; assay: crystal structure; non-tagged PbaB, 2.20 Å, space group C222(1), four molecules per asymmetric unit; 10% PEG10000, 100 mM Bis-Tris (pH 5.0), 50 mM sodium acetate, 5 mM NaAuCl4, 20°C

- Kd [1]: 330 nM
B1: non-tagged double homoheptameric ring of the proteasome α subunit, Pyrococcus furiosus (complex, UniProt Q8U0L6 1-260, looked up)
chain: MAFVPPQAGYDRAITVFSPDGRLFQVNYAREAVKRGATAVGVKCGEGVVLAVEKRITSRLIEPDSYEKIFQIDDHIAAASSGIIADARVLVNRARLEAQIYRLTYGEPAPVSVIVKKICDLKQMHTQYGGVRPFGAALLMAGINDRPELYETDPSGAYFAWKAVAIGSGRNTAMAIFEEKYRDDMNLEDAIKLALMALAKTMENPSADNIEVAVITVKDKKFRKLTRDEIEKYLSEVLKEVEEEEVKEKEEDYSELDSNY
notes: proteasome α subunit PsmA, Pyrococcus furiosus, locus PF1571, residues 1-260; also called α subunit ring; source: E. coli BL21(DE3), purified (same procedure as the non-tagged 20S proteasome mutants); copies: 14

Binder: B2
- proteasomal degradation of human α-synuclein (18 μM) by 35 nM wild-type 20S proteasome with 105 nM PbaB, 95°C; fold acceleration by PbaB [2]: ~2.5 fold
- proteasomal degradation of the fluorogenic nonapeptide LFP (10 μM) by 35 nM wild-type 20S proteasome with 175 nM PbaB, 45°C; fold acceleration by PbaB [2]: ~3 fold
- stoichiometry N [3]: 4
- Kd [4]: 21 nM
- Kd [5]: 7.8 nM

B3: PbaB (non-tagged), Pyrococcus furiosus (natural protein, UniProt Q8U1R3 1-280, looked up)
chain: MEEGGTRNREEGKMKETTIVVYERPDIYDPIFIEGLPGIGLVGKLAAEHLIQELKAKKFAELYSPHFMHQVLIRKNSVVELMKNEFYYWKSPDDEHRDLIIVTGDTQVPPTDSYGHFEVAGKMLDFVQEFGTREIITMGGYQVPEIQGEPRVLAAVTHEDLIEYYKSKLEGCSVEVIWREDEGGAIVGAAGLLLGIGKLRGMFGISLLGESLGYIVDAKAAKAVLSAVTKILGLEIDMTALDERAKETEEILRKVEEMQRAMMEQVTPKLPHEEEDRGYL
notes: PbaB, Pyrococcus furiosus, locus PF1142, residues 1-280; Homotetramer in the crystal and by ultracentrifugation; Cloned into NdeI/XhoI of pET-28b; also called non-tagged PbaB; PF1142; source: E. coli BL21(DE3), purified (Ni2+-chelating Sepharose, thrombin cleavage of the His6-tag, HiTrap Q HP, Superdex 200); not shown: His6, N-terminal, cleaved
- stoichiometry N [6]: 4

B4: His6-PbaA, Pyrococcus furiosus (natural protein, UniProt Q8U4Q9 1-242, looked up)
chain: MEEKKPVNLVLPEVENAIFIEGYPGVGLVGHIAANFLAKELDMDLIGYVDSLFIPPMSLILEGRPTPPLRFYGKNNIIIAIADIFLPPTLVNEIAKEIVNYLKKVNAEKVISLAGMGIGFFKDTFEVWGIGGSEEENKELESLGVKILKYGSITGMSGKLLWEASRAGLKSYVLLGETFGDRPDPRAAANVVEVLNKMLGLNVSVEPLLKEAEMIEEQLRRMHEQMEEARRKMERQYETMYL
notes: PbaA, Pyrococcus furiosus, locus PF0015, residues 1-242; pET-28b (NdeI/XhoI); Pentamer in solution by sedimentation velocity; also called His6-tagged PbaA; PF0015; source: E. coli BL21(DE3), purified (Ni2+-chelating Sepharose, HiTrap Q HP, Superdex 200); not shown: His6, N-terminal, kept
- stoichiometry N [3]: 5
